{"source": "paper PMC3237451", "about": "“Missense Mutation in the Second RNA Binding Domain Reveals a Role for Prkra (PACT/RAX) during Skull Development”", "molecular_target": "T1, His-RAX (S130P) (Mus musculus (cDNA from L929 cells), UniProt Q9WTX2 1-313, S130P)", "T1 sequence": "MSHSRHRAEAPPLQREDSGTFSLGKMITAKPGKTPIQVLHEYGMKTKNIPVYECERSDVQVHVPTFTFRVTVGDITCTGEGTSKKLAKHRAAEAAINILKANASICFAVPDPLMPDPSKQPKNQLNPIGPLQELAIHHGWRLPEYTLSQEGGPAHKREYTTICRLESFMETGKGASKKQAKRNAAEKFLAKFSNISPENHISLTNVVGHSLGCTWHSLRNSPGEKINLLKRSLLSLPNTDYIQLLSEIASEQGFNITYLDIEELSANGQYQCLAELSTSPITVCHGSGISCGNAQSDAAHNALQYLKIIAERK", "assay": "EMSA; 20 mM Tris pH 7.5, 50 mM KCl, 2 mM MgCl2, 2 mM MnCl2, 5% glycerol; EMSA 15 min at room temperature, 5% acrylamide gel in 0.25x TBE run cold", "details": "protein: recombinant; blunt"}
{"binder": "30-bp dsRNA probe (dsRNA) RNA 1: GGGAACAAAAGCUGGGUACCGGGCCCCCCC RNA 2: GGGGGGGCCCGGUACCCAGCUUUUGUUCCC", "values": [{"measurement": "binding result", "value": "no binding"}]}
